{"source": "paper PMC11984302", "target": "thrombin (human plasma, Sigma-Aldrich) (Homo sapiens, UniProt P00734;P00734 328-363;364-622)", "assay": "EMSA; 1 nM aptamer, thrombin 0.1x-100x; SICS: thrombin in 1 M KCl (or 150 mM KCl), pH 7.5, 30 min incubation, 300 mV; gel: 16% Tris-Glycine; temperature not stated"}
{"binder": "extended TBA 1 annealed to Cy5 gap oligo (mixed) DNA 1: TCAGCTTGCGGAGATGCGATGGTTGGTGTGGTTGGATCGAGAAAAAGGTACGCCC DNA 2: GGGCGTACCTTTTTCTCGATATCGCATCTCCGCAAGCTGA", "values": [{"measurement": "binding result", "result": "binds"}]}
